We go through 1 molecule from article PMC4698670.

Experiment [1] has as its target T1, recombinant human PRX1 (Sigma-Aldrich) (human) (UniProt Q06830).
T1 sequence: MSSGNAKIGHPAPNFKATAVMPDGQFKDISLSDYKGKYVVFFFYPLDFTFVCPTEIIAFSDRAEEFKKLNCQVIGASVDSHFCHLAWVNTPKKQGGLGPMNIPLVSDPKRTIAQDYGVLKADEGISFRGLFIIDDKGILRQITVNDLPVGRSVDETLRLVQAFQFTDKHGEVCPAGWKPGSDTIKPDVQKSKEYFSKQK

For experiment [2], the target named is T1, recombinant human PRX1 (Sigma-Aldrich) (human). The source holds these as a separate data set.

B1: recombinant fortilin_(ΔL7R) tagged with Strep-tag (natural protein)
chain: MIIYRDRISHDEMFSDIYKIREIADGLCLEVEGKMVSRTEGNIDDSLIGGNASAEGPEGEGTESTVITGVDIVMNHHLQETSFTKEAYKKYIKDYMKSIKGKLEEQRPERVKPFMTGAAEQIKHILANFKNYQFFIGENMNPDGMVALLDYREDGVTPYMIFFKDGLEMEKC
B1: in experiment [1], the PRX1 peroxidase activity in vitro (NADPH consumption rate, reaction mix normalized to 1.00; PRX1 alone 4.38) with fortilin (ΔL7R) added stood at 5.9 A.U. The decrease of PRX1 enzymatic activity (NADPH consumption rate) by Mst1 in the presence of fortilin (ΔL7R) (PRX1 alone: 75.3% decrease) in experiment [2] was 77.9 % decrease.
